Measurements reported in the supplement of paper PMC6757056.
± gives the standard deviation of the averaged measurements.

B1: library; a variant is named by its letters at N, in order (parent)
chain: GCUGUCACCGGAAUACCAGCAUCGUCUUGAUGCCCUUGGAAGUCCGGUCUGAUGAGUCCNNNNNGGACGAAACAGC

Columns and labels:
[1] = variants of: B1; assay: FACS-Seq fitted mean relative fluorescence mCherry/BFP without ligand (log10 relative fluorescence); higher = higher reporter protein expression; settings: HEK293T, ligand present: no
Experimental: (§1)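 Hammerhead (sTRSV) ribozyme switch libraries with a ligand aptamer grafted on stem I and a randomized N4-6 loop II, cloned into the 3' UTR of mCherry and transiently transfected into HEK293T cells; RNA-Seq 72 h post transfection with ligand added 1 h before transfection; RNA read count / plasmid DNA read count normalized to the non-cleaving sTRSVctl (x100), log10; sequences with >100 DNA reads. FACS-Seq: lentiviral library sorted into 6 bins after 48 h ligand, log-normal fit mean of mCherry/BFP scaled to controls. Printed sequences are partial switch sequences.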

[2] = variants of: B1; assay: normalized RNA/DNA level with ligand (relative to sTRSVctl = 100) (log10 (% of sTRSVctl)); higher = less ribozyme self-cleavage, higher mRNA level; settings: ligand concentration (+) RNA-Seq: 5 mM, HEK293T, reporter: mCherry (pCS4076), ligand present: yes
Experimental: as §1

[3] = variants of: B1; assay: normalized RNA/DNA level without ligand (relative to sTRSVctl = 100) (log10 (% of sTRSVctl)); higher = less ribozyme self-cleavage, higher mRNA level; settings: HEK293T, reporter: mCherry (pCS4076), ligand present: no
Experimental: as §1

[4] = variants of: B1; assay: FACS-Seq fitted mean relative fluorescence mCherry/BFP with ligand (log10 relative fluorescence); ligand concentration (+) FACS-Seq: 1 mM; higher = higher reporter protein expression; settings: HEK293T, ligand present: yes
Experimental: as §1

## GCUGUCACCGGAAUACCAGCAUCGUCUUGAUGCCCUUGGAAGUCCGGUCUGAUGAGUCCCCGGUGGACGAAACAGC
[1]
  FACS-Seq fitted mean (log10): 0.937 ± 0.27
[2]
  normalized RNA/DNA level with ligand (log10): 1.97 ± 0.064
[3]
  normalized RNA/DNA level without ligand (log10): 1.84 ± 0.064
[4]
  FACS-Seq fitted mean (log10): 0.944 ± 0.14

## GCUGUCACCGGAAUACCAGCAUCGUCUUGAUGCCCUUGGAAGUCCGGUCUGAUGAGUCCUGCCCGGACGAAACAGC
[1]
  FACS-Seq fitted mean (log10): 0.979 ± 0.077
[2]
  normalized RNA/DNA level with ligand (log10): 2.01 ± 0.026
[3]
  normalized RNA/DNA level without ligand (log10): 2.03 ± 0.043
[4]
  FACS-Seq fitted mean (log10): 0.875 ± 0.012

## GCUGUCACCGGAAUACCAGCAUCGUCUUGAUGCCCUUGGAAGUCCGGUCUGAUGAGUCCCGAUCGGACGAAACAGC
[1]
  FACS-Seq fitted mean (log10): 0.533 ± 0.1
[2]
  normalized RNA/DNA level with ligand (log10): 1.927 ± 0.016
[3]
  normalized RNA/DNA level without ligand (log10): 1.84 ± 0.089
[4]
  FACS-Seq fitted mean (log10): 0.495 ± 0.065

## GCUGUCACCGGAAUACCAGCAUCGUCUUGAUGCCCUUGGAAGUCCGGUCUGAUGAGUCCAGAAAGGACGAAACAGC
[1]
  FACS-Seq fitted mean (log10): -0.278 ± 0.17
[2]
  normalized RNA/DNA level with ligand (log10): 1.853 ± 0.0095
[3]
  normalized RNA/DNA level without ligand (log10): 1.12 ± 0.042
[4]
  FACS-Seq fitted mean (log10): 0.515 ± 0.022

## GCUGUCACCGGAAUACCAGCAUCGUCUUGAUGCCCUUGGAAGUCCGGUCUGAUGAGUCCACGUCGGACGAAACAGC
[1]
  FACS-Seq fitted mean (log10): 1.11 ± 0.098
[2]
  normalized RNA/DNA level with ligand (log10): 1.99 ± 0.031
[3]
  normalized RNA/DNA level without ligand (log10): 1.91 ± 0.038
[4]
  FACS-Seq fitted mean (log10): 1.1245 ± 0.0011

## GCUGUCACCGGAAUACCAGCAUCGUCUUGAUGCCCUUGGAAGUCCGGUCUGAUGAGUCCCAAAAGGACGAAACAGC
[1]
  FACS-Seq fitted mean (log10): 0.173 ± 0.019
[2]
  normalized RNA/DNA level with ligand (log10): 1.95 ± 0.029
[3]
  normalized RNA/DNA level without ligand (log10): 1.31 ± 0.062
[4]
  FACS-Seq fitted mean (log10): 0.67 ± 0.071

## GCUGUCACCGGAAUACCAGCAUCGUCUUGAUGCCCUUGGAAGUCCGGUCUGAUGAGUCCGAAGAGGACGAAACAGC
[1]
  FACS-Seq fitted mean (log10): 0.532 ± 0.0054
[2]
  normalized RNA/DNA level with ligand (log10): 1.89 ± 0.051
[3]
  normalized RNA/DNA level without ligand (log10): 1.46 ± 0.36
[4]
  FACS-Seq fitted mean (log10): 0.761 ± 0.092

## GCUGUCACCGGAAUACCAGCAUCGUCUUGAUGCCCUUGGAAGUCCGGUCUGAUGAGUCCUAAUCGGACGAAACAGC
[1]
  FACS-Seq fitted mean (log10): 0.913 ± 0.018
[2]
  normalized RNA/DNA level with ligand (log10): 1.9 ± 0.047
[3]
  normalized RNA/DNA level without ligand (log10): 1.94 ± 0.098
[4]
  FACS-Seq fitted mean (log10): 0.9083 ± 0.0059

## GCUGUCACCGGAAUACCAGCAUCGUCUUGAUGCCCUUGGAAGUCCGGUCUGAUGAGUCCAGCGAGGACGAAACAGC
[1]
  FACS-Seq fitted mean (log10): 0.281 ± 0.033
[2]
  normalized RNA/DNA level with ligand (log10): 1.99 ± 0.025
[3]
  normalized RNA/DNA level without ligand (log10): 1.68 ± 0.058
[4]
  FACS-Seq fitted mean (log10): 0.503 ± 0.017
